Assay [1] deals with mouse cardiac TnI A117G mutation (mouse, UniProt P48787 1-211, A117G). Nature of the assay: ELISA. (In general: ELISA stands for enzyme-linked immunosorbent assay.)
The target in assay [2] is mouse cardiac TnI K118C mutation (mouse, UniProt P48787 1-211, K118C). Description: ELISA.
Sequence of mouse cardiac TnI K118C mutation (P48787 whole entry K118C): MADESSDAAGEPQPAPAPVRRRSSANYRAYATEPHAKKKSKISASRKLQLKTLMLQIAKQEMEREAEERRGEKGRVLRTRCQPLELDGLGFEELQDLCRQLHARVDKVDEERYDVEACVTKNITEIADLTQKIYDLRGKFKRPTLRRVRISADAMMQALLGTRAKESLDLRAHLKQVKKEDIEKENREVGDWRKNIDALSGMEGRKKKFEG

Sequence of mouse cardiac TnI A117G mutation (P48787 whole entry A117G): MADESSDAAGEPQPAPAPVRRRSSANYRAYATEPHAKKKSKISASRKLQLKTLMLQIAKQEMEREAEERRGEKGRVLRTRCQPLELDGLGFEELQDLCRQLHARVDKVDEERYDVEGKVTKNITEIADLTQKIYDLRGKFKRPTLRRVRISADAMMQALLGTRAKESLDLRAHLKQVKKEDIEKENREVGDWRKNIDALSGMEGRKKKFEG

B1: Chicken fast TnC (natural protein)
chain: not shown
For the molecule B1, the binding result in assay [1] and in assay [2] was “binds” each time.

The values are drawn from article PMC4325132 (FEBS Open Bio, 2015).
